Results published in patent US20140120109A1 (Regeneron, published 2014).

T1: human TL1A, soluble, CHO-expressed, residues 72-251 of SEQ ID NO:244 with N-terminal His6-tag (human, UniProt O95150 72-251)
T1 construct: also called hTL1A; hTL1A (CHO)
T1 sequence: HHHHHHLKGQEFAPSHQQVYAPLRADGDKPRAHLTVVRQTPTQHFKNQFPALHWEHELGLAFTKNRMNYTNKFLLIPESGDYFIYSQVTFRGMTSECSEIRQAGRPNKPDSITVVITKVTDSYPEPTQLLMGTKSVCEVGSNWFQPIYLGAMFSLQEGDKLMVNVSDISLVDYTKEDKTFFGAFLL

T2: full length human TL1A expressed on HEK293 cells (human, UniProt O95150 1-251)
T2 sequence: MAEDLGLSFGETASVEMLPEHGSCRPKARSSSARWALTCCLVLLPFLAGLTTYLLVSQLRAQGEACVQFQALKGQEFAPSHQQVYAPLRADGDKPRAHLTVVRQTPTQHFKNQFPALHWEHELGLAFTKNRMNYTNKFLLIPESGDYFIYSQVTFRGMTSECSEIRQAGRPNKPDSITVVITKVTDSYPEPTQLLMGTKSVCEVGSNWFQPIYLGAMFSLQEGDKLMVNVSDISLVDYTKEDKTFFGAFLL

T3: full-length Fhm, human TL1A(Q167R), expressed on HEK293 cells (human, UniProt O95150 1-251)
T3 sequence: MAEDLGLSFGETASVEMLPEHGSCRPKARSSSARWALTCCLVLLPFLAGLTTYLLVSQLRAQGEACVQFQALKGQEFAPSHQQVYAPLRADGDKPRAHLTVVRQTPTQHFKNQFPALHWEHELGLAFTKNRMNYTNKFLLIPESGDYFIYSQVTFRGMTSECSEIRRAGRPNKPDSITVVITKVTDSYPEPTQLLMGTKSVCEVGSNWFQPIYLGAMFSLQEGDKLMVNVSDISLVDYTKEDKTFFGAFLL

T4: full-length cynomolgus monkey TL1A expressed on HEK293 cells (cynomolgus monkey (Macaca fascicularis), UniProt O95150 1-251 (human entry))
T4 chain: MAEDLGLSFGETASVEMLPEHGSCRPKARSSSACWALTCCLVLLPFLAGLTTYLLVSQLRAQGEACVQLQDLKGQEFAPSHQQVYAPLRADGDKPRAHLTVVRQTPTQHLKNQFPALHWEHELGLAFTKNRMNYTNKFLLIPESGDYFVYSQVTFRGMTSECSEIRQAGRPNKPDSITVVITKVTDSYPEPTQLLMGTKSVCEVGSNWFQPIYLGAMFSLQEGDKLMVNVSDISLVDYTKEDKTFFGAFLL

T5: cynomolgus monkey TL1A, soluble, CHO-expressed, residues 72-251 of SEQ ID NO:248 with N-terminal His6-tag (cynomolgus monkey (Macaca fascicularis), UniProt O95150 72-251 (human entry))
T5 construct: also called MfTL1A; MfTL1A (CHO)
T5 chain: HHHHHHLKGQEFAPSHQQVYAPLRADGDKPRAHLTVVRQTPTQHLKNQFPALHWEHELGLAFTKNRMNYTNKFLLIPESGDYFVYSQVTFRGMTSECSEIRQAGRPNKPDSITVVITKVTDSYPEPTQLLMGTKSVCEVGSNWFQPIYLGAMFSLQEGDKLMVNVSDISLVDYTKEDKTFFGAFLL

T6: rat TL1A, soluble, CHO-expressed, residues 76-252 of SEQ ID NO:258 with N-terminal His6-tag (rat, UniProt Q8K3Y7 76-252)
T6 construct: also called rTL1A; rTL1A (CHO)
T6 sequence: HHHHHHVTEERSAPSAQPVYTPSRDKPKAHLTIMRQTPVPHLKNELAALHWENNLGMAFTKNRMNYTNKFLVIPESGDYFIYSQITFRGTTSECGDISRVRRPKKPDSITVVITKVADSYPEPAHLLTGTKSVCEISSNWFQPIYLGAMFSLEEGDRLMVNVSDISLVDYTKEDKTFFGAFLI


Columns and labels:
[1] = target: T1, human TL1A, soluble, CHO-expressed, …; assay: ELISA, blocks hTL1A (150 pM) binding hDR3-Fc
In short: (§1)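 Competition sandwich ELISA: biotinylated CHO-expressed ligand (human TL1A, FHM Q167R variant, or cynomolgus TL1A) at fixed concentration preincubated with titrated antibody 1 h at 25 °C, then 1 h on hDR3-Fc or hDcR3-Fc coated wells. Bound ligand detected by streptavidin-HRP/TMB at 450 nm; sigmoidal dose-response fit.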

[2] = target: T2, full length human TL1A expressed on …; assay: cell-based or functional assay
[3] = target: T3, full-length Fhm, human TL1A(Q167R), …; assay: cell-based or functional assay
[4] = target: T4, full-length cynomolgus monkey TL1A …; assay: cell-based or functional assay
[5] = target: T5, cynomolgus monkey TL1A, soluble, …; assay: ELISA, blocks MfTL1A (50 pM) binding hDcR3-Fc
In short: as §1

[6] = target: T6, rat TL1A, soluble, CHO-expressed, …; assay: SPR 25C, mAb captured
In short: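 Biacore T100 SPR with captured mAb and soluble TL1A/Fhm analyte; ka and kd fitted to a 1:1 model assuming monomeric TL1A. KD = kd/ka; t1/2 (min) = ln2/(60·kd).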

| IC50 [1] [nM] | IC50, reporter + 10,000 TL1A cells [2] [nM] | IC50, reporter + 10,000 TL1A cells [3] [nM] | IC50, reporter + 10,000 TL1A cells [4] [nM] | IC50 [5] [nM] | Kd [6] [nM] | t1/2 [6] [min] | binding result [6] | Binder |
| --- | --- | --- | --- | --- | --- | --- | --- | --- |
| 0.064 | 6.55 | 8.39 | 18.4 | 0.127 | 0.078 | 144 |  | H4H1742P (antibody, human IgG4 S228P, V domains shown) VH: EVQLVESGGGLVQPGGSLRLSCAASGFTFSNYVMNWVRQAPGKGLEWVSVISGSGGSTHYADSVKGRFTISRDNSKDALYLQMNSLRAEDTAVYYCAKGPLEAYYYYNGMDVWGQGTTVTVSS VL: DIQLTQSPSFLSASVGDRVTITCWASQAISSYLAWYQHKPGRAPKLLIYSTSTLQSGVPSRFSGSGSGTEFTLTISSLQPEDFATYYCQQLNSYPTFGQGTKLEIK |
| 0.015 | 0.66 | 0.94 | 2.82 | 0.145 | 0.317 | 26 |  | H4H1725P (antibody, human IgG4 S228P, V domains shown) VH: QVQLVQSGAEVKKPGASVKVSCKASGYTFTGYYMHWVRQAPGQGLEWMGWIKPKSGGTNYVQKFQGRVTMTRDTSINTAYMELNNLKSDDTAVYYCATGGSQDASDFWGQGTMVTVSS VL: DIQMTQSPSSVSASVGGRVTITCRASQDISIWLAWYQQKPGKAPNLLIYAASSLQSGVPSRFSGSGSGTDFTLTISSLQPEDFATYYCQQADSFPLTFGGGTKVEIK |
| 0.069 | 7.47 | 7.75 | 20.2 | 0.068 |  |  | no binding (tested: up to 100 nM) | H4H1738P (antibody, human IgG4 S228P, V domains shown) VH: EVQLVESGGALVKPGGSLRLSCAVSGFTFINDWMNWVRQAPGKGLEWVGRIKSTTDGGTTDDAAPVKGRFTISRDDSKNTLYLQMNSLKTEDTAVYYCTRDRNRQRNYFYDGMDVWGQGTTVTVSA VL: DIVMTQSPVSLPVTPGEPASISCRSSQRLLHNNGNNYLDWYLQKPGQSPQLLIYLGSNRASGVPDRFSGSGSGTDFTLKVSRVEAEDVGVYYCMQALQTPYTFGQGTKLEIK |
| 0.018 | 0.76 | 2.12 | 4.28 | 0.118 | 2.7 | 4 |  | H4H1745P (antibody, human IgG4 S228P, V domains shown) VH: EVQLVESGGGLVQPGGSLRLSCAASGFTFSSYAMTWVRQAPGKGLEWVSGVSGRGGSTYYADSVKGRFTISRDNSKNTLYLQMNSLRAEDTAVYYCAYWDISSFDYWGQGTLVTVSS VL: DIQLTQSPSFLSASVGDRVTITCWASQGISTYLAWYQQKPGKTPKLLIYAASTLQSGVPSRFSGSGSGTDFTLTISSLQPEDFATYYCQQFNSYPLTFGGGTKVEIK |
